B1: Cell division protein FtsB (Escherichia coli (strain K12)), P0A6S5 (parent)
chain: MGKLTLLLLAILVWLQYSLWFGKNGIHDYTRVNDDVAAQQATNAKLKARNDQLFAEIDDLNGGQEALEERARNELSMTRPGETFYRLVPDASKRAQSAGQNNR
partner: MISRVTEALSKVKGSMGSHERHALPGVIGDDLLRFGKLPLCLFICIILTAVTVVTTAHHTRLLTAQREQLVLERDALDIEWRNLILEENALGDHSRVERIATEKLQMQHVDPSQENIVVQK
B2: Cell division protein FtsL (Escherichia coli (strain K12)), P0AEN4 (parent)
chain: B1 partner
partner: B1 chain

Variants of: B1
Conditions: with ftsl_ecoli ftsL, P0AEN4
With MGKLTLLLLAILVWLQYSLWFGKNGIHDYTRVNDDVAAQQATNAKAKARNDQAFAEIDDANGGQEAAEERARNELSMTRPGETFYRLVPDASKRAQSAGQNNR [L46A;L53A;L60A;L67A] the “effect of a mutation on the interaction” value was “decreasing interaction”.

Variants of: B1
Conditions: with ftsl_ecoli ftsL
With MGKLTLLLLAILVWLQYSLWFGKNGIHDYTRVNDDVAAQQATNAKAKARNDQAFAEIDDANGGQEAAEERARNELSMTRPGETFYRLVPDASKRAQSAGQNNR [L46A;L53A;L60A;L67A] the “effect of a mutation on the interaction” value was “decreasing interaction”.

Variants of: B2
Conditions: with ftsb_ecoli ftsB, P0A6S5
For MISRVTEALSKVKGSMGSHERHALPGVIGDDLLRFGKLPLCLFICIILTAVTVVTTAHHTRLATAQREQAVLERDAADIEWRNAILEENALGDHSRVERIATEKLQMQHVDPSQENIVVQK [L63A;L70A;L77A;L84A], the “effect of a mutation on the interaction” value was “decreasing interaction strength”.
